Data reported in PMC3571714.

Tests used:
[1] = target: A1T1-His6 (module 1 multi-domain construct of the nocardicin NRPS) (Nocardia uniformis subsp. tsuyamanensis ATCC 21806); assay: pull-down
[2] = target: A4T4-His6 (module 4 multi-domain construct of NocB) (Nocardia uniformis subsp. tsuyamanensis ATCC 21806); assay: pull-down

stoichiometry N [1]: 1 | stoichiometry N [2]: 1
Substance: MbtH family protein NocI (untagged) (natural protein)
